Results as given in US20110105394A1 (Novo Nordisk, published 2011).
*1 amine or outer side, *2 acyl side, *3 side chain or, on linkers, in order; H or OH if unused. Bridges are numbered along the chain shown (N, C = ends). Where no end group is shown, it is not given here. Side-chain parts run from the residue outwards. The star is where a group is joined. X2 = (S)‑4‑Carboxy‑4‑(19-carboxynonadecanoylamino)butyryl, O=C(O)CCCCCCCCCCCCCCCCCCC(=O)N[C@@H](CCC(=O)*)C(=O)O; C20 diacid = O=C(O)CCCCCCCCCCCCCCCCCCC(=O)*; γGlu = O=C(O)[C@H](CCC(=O)[*:2])N[*:1]; AEEA = NCCOCCOCC(=O)O

T1: Amylin 3(a) receptor (human calcitonin receptor (CTa) with RAMP-3) (human, UniProt P30988 25-474; O60896 24-148, limits assumed)
T1 sequence (looked up) 1: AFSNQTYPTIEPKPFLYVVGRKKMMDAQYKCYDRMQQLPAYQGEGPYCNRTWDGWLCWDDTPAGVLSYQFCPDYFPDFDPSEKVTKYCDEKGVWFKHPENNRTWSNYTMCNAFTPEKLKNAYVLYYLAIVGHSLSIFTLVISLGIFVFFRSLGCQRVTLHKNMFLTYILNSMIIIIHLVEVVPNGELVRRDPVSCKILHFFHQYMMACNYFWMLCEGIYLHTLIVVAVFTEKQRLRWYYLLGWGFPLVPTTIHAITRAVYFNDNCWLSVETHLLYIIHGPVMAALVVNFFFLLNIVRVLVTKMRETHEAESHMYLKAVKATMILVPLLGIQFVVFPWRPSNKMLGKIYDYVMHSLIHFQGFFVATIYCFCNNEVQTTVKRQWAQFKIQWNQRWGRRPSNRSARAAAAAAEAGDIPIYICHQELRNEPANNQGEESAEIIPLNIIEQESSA
T1 sequence (looked up) 2: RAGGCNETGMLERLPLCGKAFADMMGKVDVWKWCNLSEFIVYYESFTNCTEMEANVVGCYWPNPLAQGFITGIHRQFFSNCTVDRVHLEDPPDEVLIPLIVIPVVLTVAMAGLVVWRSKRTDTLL

B1: N-alpha-[2-(2-{2-[4-(S)-Carboxy-4-(19-carboxynonadecanoylamino)butyrylamino]ethoxy}ethoxy)acetyl]-His-[His1,His17]-pramlintide (peptide)
peptide: {C20 diacid-γGlu-AEEA}-HHCNTATCATQRLANFLHHSSNNFGPILPPTNVGSNTY-NH2
modifications: disulfide 3-8
SMILES: CC[C@H](C)[C@H](NC(=O)[C@@H]1CCCN1C(=O)CNC(=O)[C@H](Cc1ccccc1)NC(=O)[C@H](CC(N)=O)NC(=O)[C@H](CC(N)=O)NC(=O)[C@H](CO)NC(=O)[C@H](CO)NC(=O)[C@H](Cc1c[nH]cn1)NC(=O)[C@H](Cc1c[nH]cn1)NC(=O)[C@H](CC(C)C)NC(=O)[C@H](Cc1ccccc1)NC(=O)[C@H](CC(N)=O)NC(=O)[C@H](C)NC(=O)[C@H](CC(C)C)NC(=O)[C@H](CCCNC(=N)N)NC(=O)[C@H](CCC(N)=O)NC(=O)[C@@H](NC(=O)[C@H](C)NC(=O)[C@@H]1CSSC[C@H](NC(=O)[C@H](Cc2c[nH]cn2)NC(=O)[C@H](Cc2c[nH]cn2)NC(=O)COCCOCCNC(=O)CC[C@H](NC(=O)CCCCCCCCCCCCCCCCCCC(=O)O)C(=O)O)C(=O)N[C@@H](CC(N)=O)C(=O)N[C@@H]([C@@H](C)O)C(=O)N[C@@H](C)C(=O)N[C@@H]([C@@H](C)O)C(=O)N1)[C@@H](C)O)C(=O)N[C@@H](CC(C)C)C(=O)N1CCC[C@H]1C(=O)N1CCC[C@H]1C(=O)N[C@H](C(=O)N[C@@H](CC(N)=O)C(=O)N[C@H](C(=O)NCC(=O)N[C@@H](CO)C(=O)N[C@@H](CC(N)=O)C(=O)N[C@H](C(=O)N[C@@H](Cc1ccc(O)cc1)C(N)=O)[C@@H](C)O)C(C)C)[C@@H](C)O
B2: N-alpha-[(S)-4-Carboxy-4-(19-carboxynonadecanoylamino)butyryl]-[His1,Arg17]-pramlintide (peptide)
peptide: {C20 diacid-γGlu}-HCNTATCATQRLANFLRHSSNNFGPILPPTNVGSNTY-NH2
modifications: disulfide 2-7
SMILES: CC[C@H](C)[C@H](NC(=O)[C@@H]1CCCN1C(=O)CNC(=O)[C@H](Cc1ccccc1)NC(=O)[C@H](CC(N)=O)NC(=O)[C@H](CC(N)=O)NC(=O)[C@H](CO)NC(=O)[C@H](CO)NC(=O)[C@H](Cc1c[nH]cn1)NC(=O)[C@H](CCCNC(=N)N)NC(=O)[C@H](CC(C)C)NC(=O)[C@H](Cc1ccccc1)NC(=O)[C@H](CC(N)=O)NC(=O)[C@H](C)NC(=O)[C@H](CC(C)C)NC(=O)[C@H](CCCNC(=N)N)NC(=O)[C@H](CCC(N)=O)NC(=O)[C@@H](NC(=O)[C@H](C)NC(=O)[C@@H]1CSSC[C@H](NC(=O)[C@H](Cc2c[nH]cn2)NC(=O)CC[C@H](NC(=O)CCCCCCCCCCCCCCCCCCC(=O)O)C(=O)O)C(=O)N[C@@H](CC(N)=O)C(=O)N[C@@H]([C@@H](C)O)C(=O)N[C@@H](C)C(=O)N[C@@H]([C@@H](C)O)C(=O)N1)[C@@H](C)O)C(=O)N[C@@H](CC(C)C)C(=O)N1CCC[C@H]1C(=O)N1CCC[C@H]1C(=O)N[C@H](C(=O)N[C@@H](CC(N)=O)C(=O)N[C@H](C(=O)NCC(=O)N[C@@H](CO)C(=O)N[C@@H](CC(N)=O)C(=O)N[C@H](C(=O)N[C@@H](Cc1ccc(O)cc1)C(N)=O)[C@@H](C)O)C(C)C)[C@@H](C)O
B3: N-epsilon3-(19-carboxynonadecanoyl-Glu-Glu-Glu-Glu)-[Lys3,His17,Asp21]-pramlintide (peptide)
peptide: KCK([Glu-Glu-Glu-Glu-C20 diacid])TATCATQRLANFLHHSSDNFGPILPPTNVGSNTY-NH2
modifications: disulfide 2-7
B4: N-alpha-[(S)-4-Carboxy-4-(19-carboxynonadecanoylamino)butyryl]-Glu-Arg-[Glu1,Asp14,His17,Ala25,Pro26,Ser28,Ser29]-pramlintide (peptide)
peptide: X2-ERECNTATCATQRLADFLHHSSNNFGAPLSSTNVGSNTY-NH2
modifications: disulfide 4-9
SMILES: CC(C)C[C@H](NC(=O)[C@H](CCCNC(=N)N)NC(=O)[C@H](CCC(N)=O)NC(=O)[C@@H](NC(=O)[C@H](C)NC(=O)[C@@H]1CSSC[C@H](NC(=O)[C@H](CCC(=O)O)NC(=O)[C@H](CCCNC(=N)N)NC(=O)[C@H](CCC(=O)O)NC(=O)CC[C@H](NC(=O)CCCCCCCCCCCCCCCCCCC(=O)O)C(=O)O)C(=O)N[C@@H](CC(N)=O)C(=O)N[C@@H]([C@@H](C)O)C(=O)N[C@@H](C)C(=O)N[C@@H]([C@@H](C)O)C(=O)N1)[C@@H](C)O)C(=O)N[C@@H](C)C(=O)N[C@@H](CC(=O)O)C(=O)N[C@@H](Cc1ccccc1)C(=O)N[C@@H](CC(C)C)C(=O)N[C@@H](Cc1c[nH]cn1)C(=O)N[C@@H](Cc1c[nH]cn1)C(=O)N[C@@H](CO)C(=O)N[C@@H](CO)C(=O)N[C@@H](CC(N)=O)C(=O)N[C@@H](CC(N)=O)C(=O)N[C@@H](Cc1ccccc1)C(=O)NCC(=O)N[C@@H](C)C(=O)N1CCC[C@H]1C(=O)N[C@@H](CC(C)C)C(=O)N[C@@H](CO)C(=O)N[C@@H](CO)C(=O)N[C@H](C(=O)N[C@@H](CC(N)=O)C(=O)N[C@H](C(=O)NCC(=O)N[C@@H](CO)C(=O)N[C@@H](CC(N)=O)C(=O)N[C@H](C(=O)N[C@@H](Cc1ccc(O)cc1)C(N)=O)[C@@H](C)O)C(C)C)[C@@H](C)O
B5: N-alpha-[(S)-4-Carboxy-4-(19-carboxynonadecanoylamino)butyryl]-[Asp14,His17]-pramlintide (2-37) (peptide)
peptide: {C20 diacid-γGlu}-CNTATCATQRLADFLHHSSNNFGPILPPTNVGSNTY-NH2
modifications: disulfide 1-6
SMILES: CC[C@H](C)[C@H](NC(=O)[C@@H]1CCCN1C(=O)CNC(=O)[C@H](Cc1ccccc1)NC(=O)[C@H](CC(N)=O)NC(=O)[C@H](CC(N)=O)NC(=O)[C@H](CO)NC(=O)[C@H](CO)NC(=O)[C@H](Cc1c[nH]cn1)NC(=O)[C@H](Cc1c[nH]cn1)NC(=O)[C@H](CC(C)C)NC(=O)[C@H](Cc1ccccc1)NC(=O)[C@H](CC(=O)O)NC(=O)[C@H](C)NC(=O)[C@H](CC(C)C)NC(=O)[C@H](CCCNC(=N)N)NC(=O)[C@H](CCC(N)=O)NC(=O)[C@@H](NC(=O)[C@H](C)NC(=O)[C@@H]1CSSC[C@H](NC(=O)CC[C@H](NC(=O)CCCCCCCCCCCCCCCCCCC(=O)O)C(=O)O)C(=O)N[C@@H](CC(N)=O)C(=O)N[C@@H]([C@@H](C)O)C(=O)N[C@@H](C)C(=O)N[C@@H]([C@@H](C)O)C(=O)N1)[C@@H](C)O)C(=O)N[C@@H](CC(C)C)C(=O)N1CCC[C@H]1C(=O)N1CCC[C@H]1C(=O)N[C@H](C(=O)N[C@@H](CC(N)=O)C(=O)N[C@H](C(=O)NCC(=O)N[C@@H](CO)C(=O)N[C@@H](CC(N)=O)C(=O)N[C@H](C(=O)N[C@@H](Cc1ccc(O)cc1)C(N)=O)[C@@H](C)O)C(C)C)[C@@H](C)O
B6: N-alpha-[(S)-4-Carboxy-4-(19-carboxynonadecanoylamino)butyryl]-His-His-[His1,His17]-pramlintide (peptide)
peptide: HHHCNTATCATQRLANFLHHSSNNFGPILPPTNVGSNTY-NH2
modifications: disulfide 4-9; not fully specified (N-terminus); printed as N-alpha-[(S)-4-Carboxy-4-(19-carboxynonadecanoylamino)butyryl]-His-His-[His1,His17]-pramlintide
B7: N-alpha-[(S)-4-Carboxy-4-(19-carboxynonadecanoylamino)butyryl]-His-Arg-[His17]-pramlintide (peptide)
peptide: HRKCNTATCATQRLANFLHHSSNNFGPILPPTNVGSNTY-NH2
modifications: disulfide 4-9; not fully specified (N-terminus); printed as N-alpha-[(S)-4-Carboxy-4-(19-carboxynonadecanoylamino)butyryl]-His-Arg-[His17]-pramlintide
B8: N-alpha-[(S)-4-Carboxy-4-(19-carboxynonadecanoylamino)butyryl]-His-[His1,Arg17]-pramlintide (peptide)
peptide: HHCNTATCATQRLANFLRHSSNNFGPILPPTNVGSNTY-NH2
modifications: disulfide 3-8; not fully specified (N-terminus); printed as N-alpha-[(S)-4-Carboxy-4-(19-carboxynonadecanoylamino)butyryl]-His-[His1,Arg17]-pramlintide
B9: N-alpha-[(S)-4-Carboxy-4-(19-carboxynonadecanoylamino)butyryl]-Glu-Arg-[Glu1,His17,Gln21,Ala25,Pro26,Ser28,Ser29]-pramlintide (peptide)
peptide: X2-ERECNTATCATQRLANFLHHSSQNFGAPLSSTNVGSNTY-NH2
modifications: disulfide 4-9
SMILES: CC(C)C[C@H](NC(=O)[C@H](CCCNC(=N)N)NC(=O)[C@H](CCC(N)=O)NC(=O)[C@@H](NC(=O)[C@H](C)NC(=O)[C@@H]1CSSC[C@H](NC(=O)[C@H](CCC(=O)O)NC(=O)[C@H](CCCNC(=N)N)NC(=O)[C@H](CCC(=O)O)NC(=O)CC[C@H](NC(=O)CCCCCCCCCCCCCCCCCCC(=O)O)C(=O)O)C(=O)N[C@@H](CC(N)=O)C(=O)N[C@@H]([C@@H](C)O)C(=O)N[C@@H](C)C(=O)N[C@@H]([C@@H](C)O)C(=O)N1)[C@@H](C)O)C(=O)N[C@@H](C)C(=O)N[C@@H](CC(N)=O)C(=O)N[C@@H](Cc1ccccc1)C(=O)N[C@@H](CC(C)C)C(=O)N[C@@H](Cc1c[nH]cn1)C(=O)N[C@@H](Cc1c[nH]cn1)C(=O)N[C@@H](CO)C(=O)N[C@@H](CO)C(=O)N[C@@H](CCC(N)=O)C(=O)N[C@@H](CC(N)=O)C(=O)N[C@@H](Cc1ccccc1)C(=O)NCC(=O)N[C@@H](C)C(=O)N1CCC[C@H]1C(=O)N[C@@H](CC(C)C)C(=O)N[C@@H](CO)C(=O)N[C@@H](CO)C(=O)N[C@H](C(=O)N[C@@H](CC(N)=O)C(=O)N[C@H](C(=O)NCC(=O)N[C@@H](CO)C(=O)N[C@@H](CC(N)=O)C(=O)N[C@H](C(=O)N[C@@H](Cc1ccc(O)cc1)C(N)=O)[C@@H](C)O)C(C)C)[C@@H](C)O
B10: N-alpha-[2-(2-{2-[4-(S)-Carboxy-4-(19-carboxynonadecanoylamino)butyrylamino]ethoxy}ethoxy)acetyl]-[His1,His17]-pramlintide (peptide)
peptide: {C20 diacid-γGlu-AEEA}-HCNTATCATQRLANFLHHSSNNFGPILPPTNVGSNTY-NH2
modifications: disulfide 2-7

Target: T1, Amylin 3(a) receptor (human calcitonin …)
Test: cell-based or functional assay

How did the “Potency Luciferase” value turn out when B1 was run?
Its value is 100 pM.

For B2, which “Potency Luciferase” value is on record?
Its value is 100 pM.

B3 was tested. Which “Potency Luciferase” value did it give?
Its value is 2000 pM.

With B4 as the binder, how does the “Potency Luciferase” value read?
The value was 600 pM.

How did the “Potency Luciferase” value turn out when B5 was run?
The value was 100 pM.

With B6 as the binder, how does the “Potency Luciferase” value read?
The value was 60 pM.

With B7 as the binder, how does the “Potency Luciferase” value read?
The value was 100 pM.

Which “Potency Luciferase” value does the source give for B8 here?
The value was 100 pM.

Which “Potency Luciferase” value does the source give for B9 here?
The value was 100 pM.

Which “Potency Luciferase” value does the source give for B10 here?
Its value is 90 pM.
